According to patent US20230391879A1 (INTERVET, published 2023):
Positions count from the first letter of the chain named.

How the values were obtained:
Canine IL-31RA ECD-10His [1] = biological target: T1, Canine IL-31RA ECD-10His (canine); experiment: ELISA, IL-31RA coated
T1 construct: made in HEK-293 or CHO cells and coated on the ELISA plates; also called canine IL-31 receptor alpha extracellular domain HIS-tagged protein; cIL-31RA
T1 chain: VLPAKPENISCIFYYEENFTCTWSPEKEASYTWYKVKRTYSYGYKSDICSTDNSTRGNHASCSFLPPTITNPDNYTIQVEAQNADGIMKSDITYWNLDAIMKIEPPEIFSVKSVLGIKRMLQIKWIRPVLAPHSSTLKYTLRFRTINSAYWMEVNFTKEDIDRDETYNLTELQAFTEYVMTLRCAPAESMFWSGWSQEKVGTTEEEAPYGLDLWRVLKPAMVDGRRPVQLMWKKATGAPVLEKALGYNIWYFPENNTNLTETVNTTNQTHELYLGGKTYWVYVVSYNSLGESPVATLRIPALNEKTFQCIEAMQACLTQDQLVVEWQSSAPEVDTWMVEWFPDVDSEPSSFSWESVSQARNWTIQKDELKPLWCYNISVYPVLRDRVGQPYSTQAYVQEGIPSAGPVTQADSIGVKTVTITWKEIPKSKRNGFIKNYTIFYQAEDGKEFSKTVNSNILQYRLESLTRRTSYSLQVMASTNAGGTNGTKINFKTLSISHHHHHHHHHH

Canine IL-31RA ECD-10His [2] = biological target: T1, Canine IL-31RA ECD-10His; experiment: ELISA (FIG. 6B)
Canine IL-31RA ECD-10His [3] = biological target: T1, Canine IL-31RA ECD-10His; experiment: ELISA (FIG. 6A)
Canine IL-31RA ECD-10His [4] = biological target: T1, Canine IL-31RA ECD-10His; experiment: ELISA (FIG. 6C)

B1: 4G7 (antibody, V domains shown)
VH: EVQLQQYGAELGKPGTSVKLSCKVSGYNIRSTFMHWVNQRPGKGLEWIGRIDPVNGNTIYSEKFKSKATLTADTSSNTAYMQLSQLKSDDTAIYFCAMFNYAGHSGDYWGQGVMVTVSS
VL: DIQMTQSPSSMSVSLGDTVTITCRASQDVGIYVNWFQQKPGKSPRRMIYRATNLADGVPSRFSGSRSGSDYSLTISSLESEDVADYHCLQYDEYPYTFGAGTKLELK
notes: Rat monoclonal antibody from a hybridoma; also called rat mAb 4G7
binding result (Canine IL-31RA ECD-10His [1]): binds

B2: 28F12 (antibody, V domains shown)
VH: EVQLVESDGGLAQPGRSLKLSCAASGFTFSDYYMAWVRQAPTKGLEWVATISYDGSSTYYRDSVRGRFTISRDNAKSTLYLQMDSLRSEDTATYYCARGPLTDWAPNWFAYWGQGTLVTVSS
VL: DIQMTQSPASLSASLGETVTIQCQTSEDIYSGLAWYQQKPGKSPQFLIYGASRLEDGVPSRFSGSGSGTQYSLKISSMQTEDEGVYFCQQGLKYPNTFGAGTKLELK
notes: Rat monoclonal antibody from a hybridoma; also called rat mAb 28F12
binding result (Canine IL-31RA ECD-10His [1]): binds

B3: caninized 28F12VH2VK3 (antibody, V domains shown)
VH: EVQLVESGGDLVKPGGSLRLSCAASGFTFSDYYMAWVRQAPGKGLQWVATISYDGSSTYYRDSVRGRFTISRDNAKNTLYLQMNSLRAEDTAMYYCARGPLTDWAPNWFAYWGQGTLVTVSS
VL: DIVMTQSPASLSLSQEEKVTITCQTSEDIYSGLAWYQQKPGQAPKLLIYGASRLEDGVPSRFSGSGSGTDFSFTISSLEPEDVAVYFCQQGLKYPNTFGAGTKVELKR
notes: Caninized antibody, canine IgG-Bm heavy chain and canine kappa light chain; also called c28F12; c28F12VH2-cIgGBm + c28F12VK3-cCK
binding result (Canine IL-31RA ECD-10His [2]): binds

B4: caninized 28F12VH1VK4 (antibody, V domains shown)
VH: B3 VH with A23V, R98K
VL: DIVMTQTPLSLSVSPGETASISCQTSEDIYSGLAWFRQKPGQSPQLLIYGASRLEDGVPDRFSGSGSGTDFTLRISTVEADDTGVYFCQQGLKYPNTFGAGTKVELKR
notes: Caninized antibody, canine IgG-Bm heavy chain and canine kappa light chain; also called c28F12VH1-cIgGBm + c28F12VK4-cCK
binding result (Canine IL-31RA ECD-10His [2]): binds

B5: caninized 28F12VH1VK3 (antibody, V domains shown)
VH: B3 VH with A23V, R98K
VL: B3 VL
notes: Caninized antibody, canine IgG-Bm heavy chain and canine kappa light chain; also called c28F12VH1-cIgGBm + c28F12VK3-cCK
binding result (Canine IL-31RA ECD-10His [2]): binds

B6: caninized 28F12VH2VK4 (antibody, V domains shown)
VH: B3 VH
VL: B4 VL
notes: Caninized antibody, canine IgG-Bm heavy chain and canine kappa light chain; also called c28F12VH2-cIgGBm + c28F12VK4-cCK
binding result (Canine IL-31RA ECD-10His [2]): binds

B7: caninized 28F12VH2VK2 (antibody, V domains shown)
VH: B3 VH
VL: B3 VL with D1E, F87Y
notes: Caninized antibody, canine IgG-Bm heavy chain and canine kappa light chain; also called caninized 28F12VH2K2; c28F12
binding result (Canine IL-31RA ECD-10His [2]): binds

B8: caninized 10A12VH1VL5 (antibody, V domains shown)
VH: EVQLVESGGDLVKPGGSLRLSCVASGFTFSNYYMAWVRQAPGKGLQWVASISTGGGNTYYRDSVKGRFTISRDNAKNTLYLQMNSLRAEDTAMYYCAKHGTLYFDYWGQGTLVTVSS
VL: QPVLTQPPSLSASLGTTARLTCERSSGDIGDSYVSWYQQKPGSPPRDLLYVDDQRPSGVSKSFSGSKDTSANAGLLLISGLQPEDEADYYCQSYDSNIDGPVFGGGTHLTVLG
notes: Caninized antibody, canine IgG-Bm heavy chain and canine lambda light chain; also called c10A12VH1-cIgGBm + c10A12VL5-cCL
binding result (Canine IL-31RA ECD-10His [3]): binds

B9: caninized 10A12VH2VL6 (antibody, V domains shown)
VH: B8 VH with V23A, K98R
VL: B8 VL with L48V, L49I, G58E, Y90F
notes: Caninized antibody, canine IgG-Bm heavy chain and canine lambda light chain; also called c10A12; c10A12VH2-cIgGBm + c10A12VL6-cCL
binding result (Canine IL-31RA ECD-10His [3]): binds

B10: caninized 10A12VH1VL6 (antibody, V domains shown)
VH: B8 VH
VL: B8 VL with L48V, L49I, G58E, Y90F
notes: Caninized antibody, canine IgG-Bm heavy chain and canine lambda light chain; also called c10A12VH1-cIgGBm + c10A12VL6-cCL
binding result (Canine IL-31RA ECD-10His [3]): binds

B11: caninized 10A12VH2VL5 (antibody, V domains shown)
VH: B8 VH with V23A, K98R
VL: B8 VL
notes: Caninized antibody, canine IgG-Bm heavy chain and canine lambda light chain; also called c10A12VH2-cIgGBm + c10A12VL5-cCL
binding result (Canine IL-31RA ECD-10His [3]): binds

B12: 47F3 (antibody, V domains shown)
VH: EVQLVESGGGLVQPGRSMKLSCVASGFTFSNYYMAWVRQAPTKGLEWVASISTGGGNTYYRDSVKGRFTISRDNAKSTLYLQMDSLRSEDTATYYCARHGTLYFDYWGQGVMVTVS
VL: QFTLTQPKSVSGSLRSTITIPCERSSGDIGNTYVSWYQQHLGRPPINVIYADDQRPSEVSDRFSGSIDSSSNSASLTITNLQMDDEADYFCQSYDSNIDGPVFGGGTKLTVL
notes: Rat monoclonal antibody from a hybridoma; also called rat mAb 47F3
binding result (Canine IL-31RA ECD-10His [1]): binds

B13: 49D3 (antibody, V domains shown)
VH: EVQLVESGGGLVQPGRSMKLSCAASGFTFSNYYMAWVRQAPTKGLEWVASISTGGGNTYYRDSVKGRFTISRDNAKSTLYLQMDSLRSEDTATYYCARHGTLYFDYWGQGVMVTVSS
VL: B12 VL with N31D, T32S
notes: Rat monoclonal antibody from a hybridoma; also called rat mAb 49D3
binding result (Canine IL-31RA ECD-10His [1]): binds

B14: 51G4 (antibody, V domains shown)
VH: EVQLVESGGGLVQPGRSMKLSCAALGFTFSNYYMAWVRQAPTKGLEWVASISTGGGNTYYRDSVKGRFTISRDNAKNTLYLQMDSLRSEDTATYYCARHGTIAAMDYWGQGVMVTVSS
VL: B12 VL with S25N, S26N, N31D, T32S, N47I
notes: Rat monoclonal antibody from a hybridoma; also called rat mAb 51G4
binding result (Canine IL-31RA ECD-10His [1]): binds

B15: 10A12 (antibody, V domains shown)
VH: B13 VH with Q13K, S77R, A97G
VL: B12 VL with N31D, T32S, A51V, N80D
notes: Rat monoclonal antibody from a hybridoma; also called rat mAb 10A12
binding result (Canine IL-31RA ECD-10His [1]): binds

B16: 27A10 (antibody, V domains shown)
VH: B13 VH with A23T, S88A, G100T, T101M, L102G
VL: B12 VL with N31D, T32N, S96G, N97K, D99E, G100I
notes: Rat monoclonal antibody from a hybridoma; also called rat mAb 27A10
binding result (Canine IL-31RA ECD-10His [1]): binds

B17: 53B3 (antibody, V domains shown)
VH: B14 VH with L25F, S30N, Y59F, A75V, N77S, T78I, Y80S
VL: B12 VL with S25T, N31D, T32N
notes: Rat monoclonal antibody from a hybridoma; also called rat mAb 53B3
binding result (Canine IL-31RA ECD-10His [1]): binds

B18: caninized 44E2VH2VK1 (antibody, V domains shown)
VH: EVQLVESGGDLVKPEGSLRLSCVVSGFSLTSNGVSWVRQAPGKGLQWIAAISSGGSTYYNSVLKSRLTISRDNAKNTLYLQMNSLRTEDTAVYYCARRLSGYNYVPFAYWGQGTLVTVSS
VL: EIVMTQSPASLSLSQEEKVTITCKASQNIYKHLAWYQQKPGQAPKLLIYNANSLQTGVPSRFSGSGSGTDFSFTISSLEPEDVAVYYCQQYYSGDTFGAGTKVELKR
notes: Caninized antibody, canine IgG-Bm heavy chain and canine kappa light chain; also called c44E2; c44E2VH2-cIgGBm + c44E2VK1-cCK
binding result (Canine IL-31RA ECD-10His [4]): binds

B19: caninized 44E2VH5VK1 (antibody, V domains shown)
VH: ELTLQESGPGLVKPSQTLSLTCTVSGFSLTSNGVSWIRQRPGRGLEWMGAISSGGSTYYNSVLKSRISITADTAKNQFSLQLSSMTTEDTAVYYCARRLSGYNYVPFAYWGQGTLVTVSS
VL: B18 VL
notes: Caninized antibody, canine IgG-Bm heavy chain and canine kappa light chain; also called c44E2VH5-cIgGBm + c44E2VK1-cCK
binding result (Canine IL-31RA ECD-10His [4]): binds

B20: caninized 44E2VH4VK1 (antibody, V domains shown)
VH: B19 VH with T23V, F27G, L29V
VL: B18 VL
notes: Caninized antibody, canine IgG-Bm heavy chain and canine kappa light chain; also called c44E2VH4-cIgGBm + c44E2VK1-cCK
binding result (Canine IL-31RA ECD-10His [4]): binds

B21: caninized 44E2VH2VK2 (antibody, V domains shown)
VH: B18 VH
VL: B18 VL with V58I, Y87F
notes: Caninized antibody, canine IgG-Bm heavy chain and canine kappa light chain; also called c44E2; c44E2VH2-cIgGBm + c44E2VK2-cCK
binding result (Canine IL-31RA ECD-10His [4]): binds

B22: caninized 44E2VH5VK2 (antibody, V domains shown)
VH: B19 VH
VL: B18 VL with V58I, Y87F
notes: Caninized antibody, canine IgG-Bm heavy chain and canine kappa light chain; also called c44E2; c44E2VH5-cIgGBm + c44E2VK2-cCK
binding result (Canine IL-31RA ECD-10His [4]): binds

B23: 48B1 (antibody, V domains shown)
VH: EVQLVESGGGLVQPGRTLKLFCVASGFTFNNYWMTWIRQAPGKGLEWVASITNTGGSTYYPDSVKGRFTISRDNAKSTLYLQMNSLRSEDTATYYCTRGPDYGGHLNWFVYWGQGTLVTVSS
VL: DIVMTQSPTSMSISVGDRVTMNCKASQNVGSNVDWYQQKTGQSPKLLIYKASNRYTGVPDRFTGSGSGTDFTFTISNMQAEDLAVYYCMQSNSYPPTFGGGTKLELK
notes: Rat monoclonal antibody from a hybridoma; also called rat mAb 48B1
binding result (Canine IL-31RA ECD-10His [1]): binds

B24: 20B8 (antibody, V domains shown)
VH: EVQLVESGGGLVQPGRSLKLSCVASGFTFNNYWMTWIRQAPGKGLEWVASITNTGGSTYYPDSVKGRFTISRDNAKSTLYLQMNSLRSEDTATYYCTRGPTTVVGGWFAYWGQGTLVTVSS
VL: B23 VL with K50R, A51P
notes: Rat monoclonal antibody from a hybridoma; also called rat mAb 20B8
binding result (Canine IL-31RA ECD-10His [1]): binds

B25: 7D7 (antibody, V domains shown)
VH: B23 VH with T17S, F21S, Y59F, V110A
VL: B23 VL with V15A, F62C
notes: Rat monoclonal antibody from a hybridoma; also called rat mAb 7D7
binding result (Canine IL-31RA ECD-10His [1]): binds

B26: 22B4 (antibody, V domains shown)
VH: B23 VH with T17S, F21S, N31K, T58S, P61S, D90E, V110A
VL: B23 VL with Q38E, L47V
notes: Rat monoclonal antibody from a hybridoma; also called rat mAb 22B4
binding result (Canine IL-31RA ECD-10His [1]): binds

B27: 44E2 (antibody, V domains shown)
VH: QVQLKESGPGLVQPSQTLSLTCTVSGFSLTSNGVSWVRQPPGKGLEWIAAISSGGSTYYNSVLKSRLSISRDTSKSQVFLKMNSLQTEDTAIYFCTRRLSGYNYVPFAYWGQGTLVTVSS
VL: DIQMTQSPSLLSASVGDRVTLNCKASQNIYKHLAWCQQKLGEPPNLLISNANSLQTGIPSRFSGSGSGTDFTLTISSLQPEDVATYFCQQYYSGDTFGAGTKLELK
notes: Rat monoclonal antibody from a hybridoma; also called rat mAb 44E2
binding result (Canine IL-31RA ECD-10His [1]): binds
